Data published in patent US20150315272A1 (published 2015).
Blank lines part the entries; values can stand above or below the binder they belong to.

Legend:
[1] = molecular target: T1, Recombinant IL-17A/F heterodimer (IL-17A and IL-17F linked by a GS linker) (human); assay: Biacore 3000 SPR, 25 C, antibody captured by anti-mouse IgG Fc, cytokine titrated from 25 nM
T1 construct: also called heterodimer A/F; human recombinant IL-17A/F heterodimer
Description: All experiments were performed at 25° C. Affinipure F(ab′)₂ fragment goat anti-mouse IgG, Fc fragment specific (Jackson ImmunoResearch) was immobilised on a CMS Sensor Chip (Biacore AB) via amine coupling chemistry to a capture level of ≈6000 response units (RUs). HBS-EP buffer (10 mM HEPES pH 7.4, 0.15 M NaCl, 3 mM EDTA, 0.005% Surfactant P20, Biacore AB) was used as the running buffer with a flow rate of 10 μL/min. […] The surface was regenerated at a flowrate of 10 uL/min by a 10 μL injection of 40 mM HCl, followed by a 5 μL injection of 5 mM NaOH.
Double referenced background subtracted binding curves were analysed using the BIAevaluation software (version 3.2) following standard procedures. Kinetic parameters were determined from the fitting algorithm.

IL-17C = molecular target: T2, IL-17C (UniProt Q9P0M4 19-197); assay: Biacore 3000 SPR, antibody captured by anti-human IgG Fc
T2 sequence (looked up): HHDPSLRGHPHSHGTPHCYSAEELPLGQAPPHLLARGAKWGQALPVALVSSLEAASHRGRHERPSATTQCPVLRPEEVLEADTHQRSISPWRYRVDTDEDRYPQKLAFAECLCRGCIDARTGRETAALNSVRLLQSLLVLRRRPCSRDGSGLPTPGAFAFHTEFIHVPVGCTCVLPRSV
Description: (§1) All experiments were performed at 25° C. Affinipure Fc Fragment goat anti-human IgG, Fc fragment specific (Jackson ImmunoResearch) was immobilised on a CMS Sensor Chip via amine coupling chemistry to a capture level of ≈6000 response units (RUs). HBS-EP buffer (10 mM HEPES pH 7.4, 0.15 M NaCl, 3 mM EDTA, 0.005% Surfactant P20, Biacore AB) was used as the running buffer with a flow rate of 10 μl/min. […] The surface was regenerated by a 30 μL injections of 40 mM HCl, followed by one 5 μL injection of 5 mM NaOH.
(§2) Background subtraction binding curves were double referenced and analysed using the BIAevaluation software (version 3.2) following standard procedures. Kinetic parameters were determined from the fitting algorithm.

IL-17D = molecular target: T3, IL-17D (UniProt Q8TAD2 18-202, limits assumed); assay: as above
T3 sequence (looked up): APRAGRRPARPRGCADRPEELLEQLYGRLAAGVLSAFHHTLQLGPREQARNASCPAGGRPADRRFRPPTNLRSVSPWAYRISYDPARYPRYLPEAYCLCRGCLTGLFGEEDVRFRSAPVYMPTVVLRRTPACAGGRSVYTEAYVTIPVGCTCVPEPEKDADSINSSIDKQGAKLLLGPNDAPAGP
Description: as §1, §2

IL-17E = molecular target: T4, IL-17E (UniProt Q9H293 33-177); assay: as above
T4 sequence (looked up): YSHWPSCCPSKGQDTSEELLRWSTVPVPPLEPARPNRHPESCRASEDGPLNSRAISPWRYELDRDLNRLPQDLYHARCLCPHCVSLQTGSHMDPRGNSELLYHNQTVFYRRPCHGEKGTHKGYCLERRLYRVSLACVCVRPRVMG
Description: as §1, §2

IL-17B = molecular target: T5, IL-17B (UniProt Q9UHF5 21-180); assay: as above
T5 sequence (looked up): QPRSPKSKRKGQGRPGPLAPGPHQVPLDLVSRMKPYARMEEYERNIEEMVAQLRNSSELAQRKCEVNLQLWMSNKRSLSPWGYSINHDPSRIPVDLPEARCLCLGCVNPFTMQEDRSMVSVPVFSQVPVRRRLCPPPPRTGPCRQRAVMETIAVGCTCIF
Description: as §1, §2

T1 sequence (chain, as listed by the source limits assumed): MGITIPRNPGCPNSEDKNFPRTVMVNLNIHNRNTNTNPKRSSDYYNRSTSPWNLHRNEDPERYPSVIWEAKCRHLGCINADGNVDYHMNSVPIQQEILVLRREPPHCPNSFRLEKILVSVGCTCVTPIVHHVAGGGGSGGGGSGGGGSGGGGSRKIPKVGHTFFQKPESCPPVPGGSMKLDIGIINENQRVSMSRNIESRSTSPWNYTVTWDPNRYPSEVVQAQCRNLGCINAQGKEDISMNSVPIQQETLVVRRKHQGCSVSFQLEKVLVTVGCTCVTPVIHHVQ

Kd [1]: 0.116 nM
B1: Antibody CA028-0496 (murine IgG1 constant regions) (antibody, V domains shown)
VH: EVQLVESGGGLVQPGGSLRLSCAASGFTFSDYNMAWVRQAPGKGLEWVATITYEGRNTYYRDSVKGRFTISRDNAKNSLYLQMNSLRAEDTAVYYCASPPQYYEGSIYRLWFAHWGQGTLVTVSS
VL: AIQLTQSPSSLSASVGDRVTITCRADESVTTLMHWYQQKPGKAPKLLIYLVSNRESGVPSRFSGSGSGTDFTLTISSLQPEDFATYYCQQTWSDPWTFGQGTKVEIKR
notes: captured by anti-mouse IgG Fc

binding result (IL-17C): no binding
binding result (IL-17D): no binding
binding result (IL-17E): no binding
binding result (IL-17B): no binding
B2: Antibody CA028-0496 (human IgG4 constant regions) (antibody, V domains shown)
VH: B1 VH
VL: B1 VL
notes: human gamma-4 constant region with hinge mutation S241P and human C-kappa (Km3), made in CHO cells; also called CA028496
